Data as given in the DeepSol protein solubility set.

Assay: soluble on expression in E. coli; label from the status in PepcDB or PDB records

Sequence	soluble on expression in E. coli
MRRIGAITALSLPVLLSLLYSCGTGGSASKEEILSKKEHNPEPNIPLECYTDTGVVKLGKAIANPCYVCHTKALTPYENEVDDFDLQLVYDFPEEIKEMGNPWLNAIKPELTIGSVPMPSDEEIKTWIRQDNWSKAYAEKGKGELVYFPDIPPIYKYENGSYELINVDKEGFVRDPETGEYTGWRVFKWKPFPGFFPTNGRIDSTFIRLPEKFRKKNGEFDLNLYKKNLAILECAMKGVAPGETCSGTEVGDFIMPFRYEGDASDVEVVVYQYPPGTEFAHPLYYLDPENTLSFKSLRIKEMRYMKKLAYADTRTGTGEEEEEEGTFFWDKGRFFNDSGYWEMRAFIEDKNGYLRPQSPEESKFCIACHGGIGGTVDGTFTLWRKIPGEEGWKEQDYKNIKDYRYKAITCENLDSLEMGEEVKKALEAYCSKVGESPGEYTVYFALTAGGDHFRSNYEILQDISVDGKVDLELLYNPEKIKFIDNSGFIKPELFFPEPERAYGIDKQYYRIVKAQAFIYGRDVFEKAFGISSGGNSLEELDNLESTGVKESGIWNFVKNFLSSE	not soluble
MLLLLTFIESPIAGIPEIRKHNCLVLPHIFVCLVITKSFGRVVTSGAAVTKRAAGYFGYLAHCAADETTWYACEQFVIGHARKAVTHFIYLA	not soluble
MSLGIIRSILDTDLYKFTTGYAYAKLFPRAYGEFRFIDRNRQGFTEEFAELVRGEIRAMAALSLTRDEKEFLQRELPYLPPIYIDFLDGFRFDPEEVTVSIDAQGHLDIRAQGLLYRVTLWETPILAVISELYYRFIGAKPDWKQVEEVTRSKGELMREHRTTFSIFGMRRRFSLEVEDRVTDILKQYAGESLFGTSNVHLAHKHGLRVSGTHPHEWIQFHGAIYGYKMANYVAMEDWINVYDGDLGTVLTDTYTTDVFMRNFSKKHAMLFTSLRHDSGDPEIFIEKAVRRYEELRVDPKIKYIIFSDSLTPQRAIEIQKLCAGRIKASFGIGTNLTNDVGGGVEPLNIVMKLWKCKMTAKDDWHYCVKLSDVDGKHTGEPEEILLAMNTLGIKPKEGHHHHHH	soluble
MTVSEIRVRKINPRAKIPKRQSEGAAGYDIHSVESGRIPPNGRKSVRTGLAWDVPQSVVGLVFGRSGLALRNWIEVVETCVHPGEDKELVITLVNNGREVFEYEESSRIAQLVFVPVLSCEIDLVESLDLTERGCLGFGSTGMK	not soluble
MGSDKIHHHHHHMVSRRISEIPISKTMELDAKAKALIKKGEDVINLTAGEPDFPTPEPVVEEAVRFLQKGEVKYTDPRGIYELREGIAKRIGERYKKDISPDQVVVTNGAKQALFNAFMALLDPGDEVIVFSPVWVSYIPQIILAGGTVNVVETFMSKNFQPSLEEVEGLLVGKTKAVLINSPNNPTGVVYRREFLEGLVRLAKKRNFYIISDEVYDSLVYTDEFTSILDVSEGFDRIVYINGFSKSHSMTGWRVGYLISSEKVATAVSKIQSHTTSCINTVAQYAALKALEVDNSYMVQTFKERKNFVVERLKKMGVKFVEPEGAFYLFFKVRGDDVKFCERLLEEKKVALVPGSAFLKPGFVRLSFATSIERLTEALDRIEDFLNSR	soluble
MEDIIFGKRSNVFDVNPENTVFVLIAGTSEVSTVPGITSAGATPELTRLTPAIDSEIIGEGKCLSSKDPPMTPEGIPTPAIVTKAILSLTNIRYIIVNGGFYAKPKTPFIETGLKPSNNPAVKTAIEDLDAAIHAGEHIGRLLDGVFENIILAESVPGGTTTAYAVLKAIGINAKTSSSMKEDPFSIKEKIAEMSFRRKLEKSPLGAVKEYGDNMMAVSLGISSSVKRSKIIFGGGTQMATVMYLDRLINGMRDRYISTTGWVYYHRTELFSDLGLSDYLAVSAMDFSGMKHPGLRYYQYGHVREGTGMGAAFLLARLMNFEAEAIYKSVDDFYEQFI	not soluble
MSNGRAVNGFLLDITGVLYNSIYKSDGVAVPKSAEAVNFLYQHSKVKFLSNAKGNSNRNVARRLQRLGINVREEDVITPAPVVAQYCRENKLRPHLFVRDDVLEYFDGIDTSSPNCVVMGEVEEGFSFDRINRAFRILIDMPKPLLITMGNGKFFQRVDGPCIDVGAFAAALKFSTNCEVLNIGKPSRFYFEQGMNALGMKPEEIVMVGDDLMSDVGGAQACGMRGVQVRTGKWRPDFEKMPVTPDLTADCLYDAVKLIADNGFRL	not soluble
MSKKTLSTVNYQLSTDTMCLAIPGQVIEIREENGLKMGTVDISGALTKACLEYVPEIAIGQYTIVHAGFALKIIDEKEAAESLKLWDELIKSGAFDVDGELPPSPIQKPEA	not soluble
MMNDGKQQSTFLFHDYETFGTHPALDRPAQFAAIRTDSEFNVIGEPEVFYCKPADDYLPQPGAVLITGITPQEARAKGENEAAFAARIHSLFTVPKTCILGYNNVRFDDEVTRNIFYRNFYDPYAWSWQHDNSRWDLLDVMRACYALRPEGINWPENDDGLPSFRLEHLTKANGIEHSNAHDAMADVYATIAMAKLVKTRQPRLFDYLFTHRNKHKLMALIDVPQMKPLVHVSGMFGAWRGNTSWVAPLAWHPENRNAVIMVDLAGDISPLLELDSDTLRERLYTAKTDLGDNAAVPVKLVHINKCPVLAQANTLRPEDADRLGINRQHCLDNLKILRENPQVREKVVAIFAEAEPFTPSDNVDAQLYNGFFSDADRAAMKIVLETEPRNLPALDITFVDKRIEKLLFNYRARNFPGTLDYAEQQRWLEHRRQVFTPEFLQGYADELQMLVQQYADDKEKVALLKALWQYADEIVEHHHHHH	soluble
MGSDKIHHHHHHMKSLIHCLFLIPLFFVQAHAEVTITLPDSAEPLLLNGKDITSHQLISQNGPQQLVFNARASYREFGQQKRFVSETLIVTFSGENNHYRVSLPKISSPKSAEKFNDVPQIGLTDTQGNKVAYKIDKLLKDGIQIGRNYSEEIKAYNIGQGVAAIAINQPVQMAPSTSSSASSGAASPAATSTALAAQQTTAPQGAQPVGQPTSQPNTQPVSQTGTPRRDQINVGQMLDFWYEQADEATREAFKKRIGLIEQAQRDGH	not soluble
MPNLLDDSFDPTFQSTSKKLVLPSIRKVQPEYDNLPEEQGVNDFSSDELMKLLSFMEGEVQAREDVIDHLKRERTKILLSEAKYGKLNMNDPFAALRRDSAITGEQIDEEKIVQMYESQVDQLDKMMAVQKQSQRNAAVLLVALEKKQYKLVKKLEADREAKIRYAKQGDDLVAHLEKERNQLQQQIEFHIEEKRKAEIAKDKMEMTLGNEKKRHESIVLYLIQERKQMLLKMHELRVKAEQIMLQNQNDPTKPGPSSALSERELIEELKKEVTFLRAERESLTKTQKMVKTENLSLRETVRGQEADLQMLRRNLTLTGAKMSIDKPGNVLPQLPPDTGSLIMANRGAKPAVNRQQPAPPPVARLPNSATFPTEKSRLPRAPPPAVTTPVPRMSIGSLPASSSNVPRTMSSPVKKTPVMGVSSTAVRRPQSAATTTMPTTSVITNTSAVMPLSPDLEQLEAAIQSMNVVTASPPAYSTAMAKRSSSLPREANNNPPGAPIRRSTMNGGMHTSTTGVVSTRIAGPSSNVASERKLSGTVKRNGILAKAFGSSK	not soluble
MSLRALFDALTPKQARIAAILKREGGLQLTITCREYYHLRDMLEQYKVDYICIGRYGETTEEKLVEGLKRQLQMVEIMRGLDGVVSFPSPDAVRTAFGLGKKSVVLNDTPHAYHANSLTIPLSDALIAPSAIPQDAWRRYCPKKVMTFDGVFEYMWTSRHTPNLESVRKLGLEPGSYVVFRPEEAKAAYYQWNNVQLRAKLVELVKEMGYVVVNIPRYPDQVIEGAINLIKAVDHLDLAYYAAAVITGGLTMSTEAALLGTPAVSYFPGDVYIDRYLERAGAPLLRCSSMDECIHVVKKALSMGRAPPPKMEDPLKAIVAAVQEIFGGEGHHHHHH	soluble
MGSDKIHHHHHHMIDLHCHILPNIDDGAKSIDEAIALVALAAEQGVSRMVATPHIHLGIYDNNLQSINAAYHLLCDALALTNIDIQLRAAAEVRVSPEIMLFIEQQQLPFLGRYQQKDVLLLELPSSHIPPGTDKLISWLLAKNVLPMIAHPERNRELQSHPERITPFVRAGCLFQLTAASLIGDMGEAPKQLSEYFIKQKLYSIIGSDCHSLNRRPPKLLQAQHAVTALTDQEYAFALTTSMPGSISNVLFAESSD	not soluble
MSLKKLIAVAVLSACGSLAHANTNIPNYNTDAHLYEFTQTYDLVVPKGSQGQTNLWVPLPFNGEYQQVKSIHFEGNYMNAYVTENNKYGAKTLFATWNKDAQKRDLKVMMVIETKDREPMVKGALENYTPPKDIQYSVDVQEYLKATPHIKTDGIVKEFPDKILGKETNPLKKAELIHHWFVKNMERDNSVLGCGDGDVEKILTTGVLKGKCTDINSVFVALARAAGIPAREIFGIRLGAAEKMGKYSKGAFGSANEQGIANVSGGQHCRAEFYLAGFGWVPVDSADVAKMRLAEKKSVEDKDTQAVAKYLFGNWEANWVGFNHARDFDLYPQPELAPINNFGYPYAEVGGDPLNSFDPKEFKYDYVSKKLEGGSHHHHHH	soluble
AHHHHHHGSKGILPYVIFRSKKGTFALDAYLALRVEKVERIATLIRKAEVVKRAFDIPPNADLTLEELSEFLESSMEKIRKNAGESFDRRLKKIRRWNLARLFGIPTGHTRHIAEDEHLSREHRESLLALSILENVCRGGIEPIGYGVVDVEVKEGKVYINGKLDPVYTELIKIDMKAALALLEILSE	not soluble
MADFDNLFDAAIARADETIRGYMGTSATITSGEQSGAVIRGVFDDPENISYAGQGVRVEGSSPSLFVRTDEVRQLRRGDTLTIGEENFWVDRVSPDDGGSCHLWLGRGVPPAVNRRR	soluble
MKPSVILYKALPDDLLQRLQEHFTVHQVANLSPQTVEQNAAIFAEAEGLLGSNENVNAALLEKMPKLRATSTISVGYDNFDVDALTARKILLMHTPTVLTETVADTLMALVLSTARRVVEVAERVKAGEWTASIGPDWYGTDVHHKTLGIVGMGRIGMALAQRAHFGFNMPILYNARRHHKEAEERFNARYCDLDTLLQESDFVCLILPLTDETHHLFGAEQFAKMKSSAIFINAGRGPVVDENALIAALQKGEIHAAGLDVFEQEPLSVDSPLLSMANVVAVPHIGSATHETRYGMAACAVDNLIDALQGKVEKNCVNPHVAD	soluble
SLAQIPRPEIMDEDQLMKEVLDKFVNCHEQTYEEFLSTFTHLSKEDNVAKWGAHGTDSSENIFSTVKWNHKTESNGCHFRNTTIFLHTSSEHSEEDQIVIDEGHKVGSSFQGDMTRAGKVKVDNFLDLEDVDMEEESKPQMNKDCLLLPGEVEQDISTSVPSYDPSVDLPLTSEVRPKPAVGRTQKQTEEILGDEVQPFFLDEEFDYDNVTLTPKFTAGEIATIQELSKQKRVGSGTNVCELHD	soluble
MGEWEIIDIGPFTQNLGKFAVDEENKIGQYGRLTFNKVIRPCMKKTIYENEGFREIKGYEYQLYVYASDKLFRADISEDYKTRGRKLLRFNGPVPPP	soluble
MSATINDLASFNKFFTENQHRFIRFAWTYTRDEVVAEDIVMESLMAYWENRDHMTPEINPAAYVLTVVKNKCLNYLRHLQLVNDVSDRVASHSEWELSNRIATLDACEPNALFASEVQDIIDRVISRLSATTARIFLLSRYDNKSHKEIAEIMGMTVKGVEFHISKATKELRVALKDYLVLFPFLCDFLSRN	not soluble
MGSDKIHHHHHHMLNAKLLKLPTAAQQHHHEHHQIVVGVRGQAELSIDGSGACLDTWKACLVPTEARHDYCGDQQNHVLVINVDPFCAALSTPLHSDYDKLMRLFEKPRTVQMDNRIQGLVQFAAGEFDRSPDNRALHQHLAASILHCMAERIVDRPPVSSNRNSLNPEDIRRYIVGNLHRKITVQDLAGVACLSVSRFHEIFRQVTGTTPHQFLLQTRLDQAVGLLSSTSLSVSEISYRTGFSSQSALTNALRKHRGITPSRLQLNEHVA	not soluble
